Data published in patent US20090130131A1.
Like-named read-outs stand apart in the source and are kept apart here.

Experiments:
[1] = molecular target: Influenza split vaccine A/New Caledonia/20/99 (H1N1)
[2] = molecular target: Influenza split vaccine A/New Caledonia/20/99 (H1N1); remark: listed apart in the source
[3] = molecular target: Influenza split vaccine A/New York/55/2004 (H3N2)
[4] = molecular target: Influenza split vaccine B/Shanghai/361/2002
[5] = molecular target: Influenza split vaccine A/New Caledonia/20/99 (H1N1); remark: listed apart in the source

Molecule | Coupling Ratio (%) [1] | Coupling Ratio (%) [5] | further results
Synthetic AD vehicle SSF-30 (from UniProt P07988 220-260) | 91.3% | – | –
Synthetic AD vehicle SSF-28 (from UniProt P07988 201-260) | – | – | Coupling Ratio (%) [2]: 83%; Coupling Ratio (%) [3]: 64.4%; Coupling Ratio (%) [4]: 87.9%
IPCCPVHLKRLKLLLLLLLLILLLILGALLMGL [Synthetic AD vehicle SSF-46] | – | 76.2% | –
GIPFFPVHLKRLKLLLLLLLLILLLILGALLIGL [Synthetic AD vehicle SSF-47] | – | 86.9% | –
FGIPSSPVHLKRLLILKLLLLKILLLKLGALLIGL [Synthetic AD vehicle SSF-48] | – | 66.3% | –
FPIPLPYCWLCRALIKRIQAMIPKG [Synthetic AD vehicle SSF-14] | 57% | – | –
RMLPQLVCRLVLRCSMD [Synthetic AD vehicle SSF-24] | 91.3% | – | –
KLLLLKLLLLKLLLLKLLLL [Synthetic AD vehicle SSF-45] | – | 64.8% | –
PVHLKRLLLLLLLLLLLLLLLL [Synthetic AD vehicle SSF-44] | – | 72.8% | –
